Data published in the Human Domainome abundance scans (Beltran et al. 2025).
± gives the uncertainty stated by the source.

Assay: abundance fitness (aPCA) (normalised: wild type 0, dead -1); higher = more abundant; growth selection in yeast, the domain comes from the species named
Conditions: Homo sapiens

Row | Substance | abundance fitness
1 | Lipoamide acyltransferase component of branched-chain alpha-keto acid dehydrogenase complex, mitochondrial I205Y, P11182 | -0.349 ± 0.15
2 | Lipoamide acyltransferase component of branched-chain alpha-keto acid dehydrogenase complex, mitochondrial K187A, P11182 | -0.14 ± 0.04
3 | Lipoamide acyltransferase component of branched-chain alpha-keto acid dehydrogenase complex, mitochondrial K187C, P11182 | -0.251 ± 0.099
4 | Lipoamide acyltransferase component of branched-chain alpha-keto acid dehydrogenase complex, mitochondrial K187D, P11182 | 0.009 ± 0.048
5 | Lipoamide acyltransferase component of branched-chain alpha-keto acid dehydrogenase complex, mitochondrial K187E, P11182 | -0.133 ± 0.046
6 | Lipoamide acyltransferase component of branched-chain alpha-keto acid dehydrogenase complex, mitochondrial K187G, P11182 | -0.304 ± 0.036
7 | Lipoamide acyltransferase component of branched-chain alpha-keto acid dehydrogenase complex, mitochondrial K187H, P11182 | -0.144 ± 0.057
8 | Lipoamide acyltransferase component of branched-chain alpha-keto acid dehydrogenase complex, mitochondrial K187I, P11182 | -0.078 ± 0.076
9 | Lipoamide acyltransferase component of branched-chain alpha-keto acid dehydrogenase complex, mitochondrial K187L, P11182 | -0.126 ± 0.053
10 | Lipoamide acyltransferase component of branched-chain alpha-keto acid dehydrogenase complex, mitochondrial K187M, P11182 | -0.075 ± 0.12
11 | Lipoamide acyltransferase component of branched-chain alpha-keto acid dehydrogenase complex, mitochondrial K187N, P11182 | -0.026 ± 0.072
12 | Lipoamide acyltransferase component of branched-chain alpha-keto acid dehydrogenase complex, mitochondrial K187P, P11182 | 0.022 ± 0.049
13 | Lipoamide acyltransferase component of branched-chain alpha-keto acid dehydrogenase complex, mitochondrial K187Q, P11182 | -0.06 ± 0.045
14 | Lipoamide acyltransferase component of branched-chain alpha-keto acid dehydrogenase complex, mitochondrial K187R, P11182 | -0.04 ± 0.039
15 | Lipoamide acyltransferase component of branched-chain alpha-keto acid dehydrogenase complex, mitochondrial K187S, P11182 | -0.045 ± 0.054
16 | Lipoamide acyltransferase component of branched-chain alpha-keto acid dehydrogenase complex, mitochondrial K187T, P11182 | -0.097 ± 0.057
17 | Lipoamide acyltransferase component of branched-chain alpha-keto acid dehydrogenase complex, mitochondrial K187V, P11182 | -0.139 ± 0.099
18 | Lipoamide acyltransferase component of branched-chain alpha-keto acid dehydrogenase complex, mitochondrial K187W, P11182 | -0.538 ± 0.05
19 | Lipoamide acyltransferase component of branched-chain alpha-keto acid dehydrogenase complex, mitochondrial K196A, P11182 | -0.054 ± 0.037
20 | Lipoamide acyltransferase component of branched-chain alpha-keto acid dehydrogenase complex, mitochondrial K196C, P11182 | -0.22 ± 0.051
21 | Lipoamide acyltransferase component of branched-chain alpha-keto acid dehydrogenase complex, mitochondrial K196F, P11182 | -0.408 ± 0.062
22 | Lipoamide acyltransferase component of branched-chain alpha-keto acid dehydrogenase complex, mitochondrial K196G, P11182 | -0.159 ± 0.036
23 | Lipoamide acyltransferase component of branched-chain alpha-keto acid dehydrogenase complex, mitochondrial K196H, P11182 | -0.17 ± 0.062
24 | Lipoamide acyltransferase component of branched-chain alpha-keto acid dehydrogenase complex, mitochondrial K196I, P11182 | -0.185 ± 0.068

Row | Substance | abundance fitness
25 | Lipoamide acyltransferase component of branched-chain alpha-keto acid dehydrogenase complex, mitochondrial K196L, P11182 | -0.175 ± 0.04
26 | Lipoamide acyltransferase component of branched-chain alpha-keto acid dehydrogenase complex, mitochondrial K196M, P11182 | -0.142 ± 0.053
27 | Lipoamide acyltransferase component of branched-chain alpha-keto acid dehydrogenase complex, mitochondrial K196N, P11182 | -0.053 ± 0.076
28 | Lipoamide acyltransferase component of branched-chain alpha-keto acid dehydrogenase complex, mitochondrial K196P, P11182 | -0.051 ± 0.047
29 | Lipoamide acyltransferase component of branched-chain alpha-keto acid dehydrogenase complex, mitochondrial K196Q, P11182 | -0.077 ± 0.047
30 | Lipoamide acyltransferase component of branched-chain alpha-keto acid dehydrogenase complex, mitochondrial K196R, P11182 | -0.026 ± 0.039
31 | Lipoamide acyltransferase component of branched-chain alpha-keto acid dehydrogenase complex, mitochondrial K196S, P11182 | -0.121 ± 0.044
32 | Lipoamide acyltransferase component of branched-chain alpha-keto acid dehydrogenase complex, mitochondrial K196T, P11182 | -0.079 ± 0.044
33 | Lipoamide acyltransferase component of branched-chain alpha-keto acid dehydrogenase complex, mitochondrial K196V, P11182 | -0.124 ± 0.037
34 | Lipoamide acyltransferase component of branched-chain alpha-keto acid dehydrogenase complex, mitochondrial K196W, P11182 | -0.52 ± 0.053
35 | Lipoamide acyltransferase component of branched-chain alpha-keto acid dehydrogenase complex, mitochondrial K196Y, P11182 | -0.222 ± 0.058
36 | Lipoamide acyltransferase component of branched-chain alpha-keto acid dehydrogenase complex, mitochondrial K202A, P11182 | 0.039 ± 0.042
37 | Lipoamide acyltransferase component of branched-chain alpha-keto acid dehydrogenase complex, mitochondrial K202C, P11182 | -0.282 ± 0.086
38 | Lipoamide acyltransferase component of branched-chain alpha-keto acid dehydrogenase complex, mitochondrial K202D, P11182 | -0.215 ± 0.058
39 | Lipoamide acyltransferase component of branched-chain alpha-keto acid dehydrogenase complex, mitochondrial K202E, P11182 | 0.069 ± 0.052
40 | Lipoamide acyltransferase component of branched-chain alpha-keto acid dehydrogenase complex, mitochondrial K202G, P11182 | -0.135 ± 0.038
41 | Lipoamide acyltransferase component of branched-chain alpha-keto acid dehydrogenase complex, mitochondrial K202I, P11182 | -0.017 ± 0.17
42 | Lipoamide acyltransferase component of branched-chain alpha-keto acid dehydrogenase complex, mitochondrial K202L, P11182 | -0.118 ± 0.047
43 | Lipoamide acyltransferase component of branched-chain alpha-keto acid dehydrogenase complex, mitochondrial K202M, P11182 | -0.089 ± 0.053
44 | Lipoamide acyltransferase component of branched-chain alpha-keto acid dehydrogenase complex, mitochondrial K202P, P11182 | 0.011 ± 0.052
45 | Lipoamide acyltransferase component of branched-chain alpha-keto acid dehydrogenase complex, mitochondrial K202Q, P11182 | -0.088 ± 0.049
46 | Lipoamide acyltransferase component of branched-chain alpha-keto acid dehydrogenase complex, mitochondrial K202R, P11182 | -0.001 ± 0.037
47 | Lipoamide acyltransferase component of branched-chain alpha-keto acid dehydrogenase complex, mitochondrial K202S, P11182 | -0.124 ± 0.049
48 | Lipoamide acyltransferase component of branched-chain alpha-keto acid dehydrogenase complex, mitochondrial K202T, P11182 | -0.211 ± 0.062
